# Results from patent US20230064703A1.
# B1: chimeric antibody 45F1F3 (human IgG1) (antibody, V domains shown)
# VH: DVQLQESGPGLVKPSQSLSLTCTVTGYSITIDYAWNWIRQFPGNKLEWMGYISNSGYTSYNPSLKSRISFTRDTSKNQFFLQLNSVTPEDSATYYCTRSGHYDLFDYWGQGTTLTVSS
# VL: DVVMTQAPLTLSVTIGQPASISCKSSQSLFDRDGKTYLSWLLERPGQSPKRLIYLVSNLDSGVPDRFTGSGSGTDFTLKISRVEAEDLGVYYCWQGTHFPYTFGGGTKVEMKR
# B2: chimeric antibody 225H7D12 (human IgG1) (antibody, V domains shown)
# VH: QVQLQQSGAEVMKPGASVKLSCKTTGYRFTGYWIEWVKQRPGHGLEWIGEILPGSGVSNNNEKFRDKATFTADTSSNTAYIQLSSLTTDDSAIYYCARKASYYTMDYWGQGTSVTVSS
# VL: QIVLTQSPAIMSASLGERVTMTCTASSSVSSFYFHWYQQKPGSSPKLWIYSISNLASGVPTRFSGSGSGTSYSLTISSMEAEDAATYYCHQYHRSPRTFGGGTKLEIKR
# B3: humanized antibody 225H7D12 VH1.4 + VL1.2 (antibody, V domains shown)
# VH: QVQLVQSGAEVKKPGASVKVSCKTTGYRFTGYWIEWVKQAPGQGLEWIGEILPGSGVSNNNEKFRDRATFTADTSINTAYMELSRLRSDDTAVYYCARKASYYTMDYWGQGTLVTVSS
# VL: DIQMTQSPSSLSASVGDRVTITCTASSSVSSFYFHWYQQKPGKAPKLWIYSISNLASGVPSRFSGSGSGTSYTLTISSLQPEDFATYYCHQYHRSPRTFGGGTKLEIK
# Key:
# [1] = molecular target: human GITR expressed on Cho-K1 cells (human) (UniProt Q9Y5U5); assay: FACS, chimeric antibody on GITR/Cho-K1 cells, geometric mean, 4-parameter fit
# [2] = molecular target: human GITR expressed on Cho-K1 cells (human) (UniProt Q9Y5U5); assay: FACS binding assay with GITR/Cho-K1, chimeric antibody
# [3] = molecular target: human GITR expressed on Cho-K1 cells (human) (UniProt Q9Y5U5); assay: FACS binding assay with GITR/Cho-K1, humanized antibody
# Chain of human GITR expressed on Cho-K1 cells (human) (Q9Y5U5 26-241): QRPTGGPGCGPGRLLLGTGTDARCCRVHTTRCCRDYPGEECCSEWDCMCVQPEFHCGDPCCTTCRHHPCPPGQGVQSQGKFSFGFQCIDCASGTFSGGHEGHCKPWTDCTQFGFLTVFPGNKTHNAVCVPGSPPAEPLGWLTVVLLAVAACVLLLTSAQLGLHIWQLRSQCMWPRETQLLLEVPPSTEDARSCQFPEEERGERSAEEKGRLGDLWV
Binder,EC50 [1],EC50 [2],EC50 [3]
B1,0.0443 µg/mL,0.111 µg/mL,–
B2,0.0566 µg/mL,0.112 µg/mL,–
B3,–,–,0.181 µg/mL
